For series [1], the target named is epitope-tagged human PAR3 (FLAG epitope fused to amino acid 17 of PAR3) (human) (UniProt O00254). Description: antibody binding to the FLAG epitope on the surface of transfected Cos 7 cells.
In series [2] the target is T1, human PAR3 (Homo sapiens, UniProt O00254).
T1 construct: The human PAR3 cDNA used for the functional studies presented below was cloned from a Lamda gt 10 intestinal cDNA library; expressed in transfected cells; host or cells: Cos 7 cells
T1 sequence (O00254 22-374): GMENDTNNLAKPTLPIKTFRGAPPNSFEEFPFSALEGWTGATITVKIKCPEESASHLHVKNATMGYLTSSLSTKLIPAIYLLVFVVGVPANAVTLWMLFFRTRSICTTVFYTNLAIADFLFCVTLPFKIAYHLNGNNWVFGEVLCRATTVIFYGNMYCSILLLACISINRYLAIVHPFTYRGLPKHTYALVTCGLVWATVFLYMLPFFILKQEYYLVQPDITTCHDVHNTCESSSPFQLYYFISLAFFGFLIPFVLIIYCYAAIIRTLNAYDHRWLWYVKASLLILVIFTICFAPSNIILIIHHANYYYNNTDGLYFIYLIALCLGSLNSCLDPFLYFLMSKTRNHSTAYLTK
Nature of the series: Phosphoinositide hydrolysis in Cos 7 cells transfected with human PAR3. In kind it is cell-based. Particulars: Cos 7 cells expressing human PAR3; peptide concentrations up to 100 μM. The protocol:
PAR3 signaling in Cos 7 cells was also examined. Cos 7 cells were transfected with human PAR1 or PAR3. Cells were then metabolically labelled with ^3H-inositol and phosphoinositide hydrolysis was measured in response to the indicated concentrations of a-thrombin (FIG. 8) or γ-thrombin (FIG. 9) as described by Ishii, et al. and Nanevicz et al. (Ishii, K. et al. (1993) supra; and Nanevicz, T. et al. (1996) J. Biol. Chem. 271:702–706).
Peptides homologous to the tethered domain of PAR3 may be tested as potential agonists of PAR3 activity. Two peptides TFRGAP (SEQ NO:27) and […] (SEQ ID NO:17) were synthesized and tested for their ability to mimic the action of thrombin by causing PAR3 signaling as measured by phosphoinositide hydrolysis. Cos 7 cells expressing human PAR3 were incubated with the peptides at concentrations up to 100 μM.

The target of series [3] is α-thrombin (Homo sapiens (Human)) (UniProt P00734). Description: cell-based or functional assay.
Series [4] concerns the target epitope-tagged human PAR3 (FLAG epitope fused to amino acid 17 of PAR3) (human) (UniProt O00254). Nature of the series: cell-based or functional assay.
For series [5], the system named is epitope-tagged human PAR3 bearing the F40A tethered ligand domain mutation.
The target in series [6] is human protease-activated receptor 3 (human) (UniProt O00254). Nature of the series: cell-based or functional assay.

For the substance M1 monoclonal antibody (Kodak), in series [1], the share of M1 antibody binding that was transfection-dependent was more than 95%.
Turning to “TFRGAP [synthetic peptide homologous to the tethered ligand domain of PAR3]”, the “PAR3 signaling as measured by phosphoinositide hydrolysis (agonist activity)” value in series [2] was “no detectable signaling”.
The same measure, in the same setting: the result for “TFRGAPPNS [synthetic peptide homologous to the tethered ligand domain of PAR3]” reads “no detectable signaling”.
Turning to hirugen (peptide), the shift of the α-thrombin dose response curve for PAR3 signaling (data not shown) in series [3] amounted to 2 logs.
In the case of “thrombin rendered proteolytically inactive by the active site inhibitor PPACK (enzyme)”, the 45Ca release in Xenopus oocytes in series [4] stood at 1 µM.
For the substance α-thrombin, in series [5], the “PAR3 signaling and PAR3 cleavage by thrombin” value was “ablated PAR3 signaling but not PAR3 cleavage by thrombin”.
Consider γ-thrombin (enzyme), for which the EC50, phosphoinositide hydrolysis in Cos 7 cells in series [6] worked out at 20 nM.

Values taken from patent publication US7176283B1, “Protease-activated receptor 3 and uses thereof” (The Regents of the University of California, priority 1996, dated 2007).
